Measured values published in patent US20200040059A1.

target: CD80 (Homo sapiens (Human)) (UniProt P33681); assay: flow cytometry, cells expressing CD80
Sequence (P33681 35-288 limits assumed, form in doubt): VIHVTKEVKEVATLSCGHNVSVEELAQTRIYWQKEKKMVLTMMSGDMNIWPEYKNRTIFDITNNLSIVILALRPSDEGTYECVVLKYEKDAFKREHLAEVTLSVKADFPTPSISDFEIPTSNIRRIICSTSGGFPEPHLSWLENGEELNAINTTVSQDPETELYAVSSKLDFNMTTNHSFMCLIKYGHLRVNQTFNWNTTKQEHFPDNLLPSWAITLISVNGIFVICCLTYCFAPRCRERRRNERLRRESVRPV

MFI at 20 nM	Substance
149	variant PD-L1 ECD-Fc I36T, G52R, M97L, V112A, K144E, V175A, P198T (Fc fusion)
190	variant PD-L1 ECD-Fc I36T, I46V, D55G, M97L, K106E, K144E, T185A, R195G (Fc fusion)

target: PD-1 (Homo sapiens (Human)) (UniProt Q15116); assay: flow cytometry, cells expressing PD-1
Sequence (Q15116 21-288 limits assumed, form in doubt): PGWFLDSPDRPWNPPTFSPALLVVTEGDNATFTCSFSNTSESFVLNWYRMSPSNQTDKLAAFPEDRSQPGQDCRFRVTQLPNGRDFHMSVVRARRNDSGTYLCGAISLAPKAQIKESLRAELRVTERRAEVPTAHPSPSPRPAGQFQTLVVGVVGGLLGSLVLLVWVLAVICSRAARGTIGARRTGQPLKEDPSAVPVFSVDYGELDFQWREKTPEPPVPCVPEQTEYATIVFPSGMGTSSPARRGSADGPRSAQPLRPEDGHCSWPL

MFI at 20 nM	Substance
81	variant PD-L1 ECD-Fc I36T, G52R, M97L, V112A, K144E, V175A, P198T (Fc fusion)
69	variant PD-L1 ECD-Fc I36T, I46V, D55G, M97L, K106E, K144E, T185A, R195G (Fc fusion)

target: T1, CD226 (human) (UniProt Q15762); assay: flow cytometry, CD226-expressing cells
T1 sequence: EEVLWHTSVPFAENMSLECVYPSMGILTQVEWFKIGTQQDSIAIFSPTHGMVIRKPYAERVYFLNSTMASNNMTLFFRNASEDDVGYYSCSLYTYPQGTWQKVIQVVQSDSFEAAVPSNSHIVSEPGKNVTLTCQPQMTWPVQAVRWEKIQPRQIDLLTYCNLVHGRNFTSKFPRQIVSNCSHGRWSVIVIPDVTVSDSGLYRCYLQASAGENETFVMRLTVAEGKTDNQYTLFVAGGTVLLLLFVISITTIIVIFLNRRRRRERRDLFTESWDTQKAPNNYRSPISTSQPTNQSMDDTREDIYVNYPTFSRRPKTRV

MFI at 11.1 nM [MFI]	Substance
803	CD155 variant IgV-Fc V9I, Q12K, P18F, S65A, S67V, L79P, L104T, G111R, S112I (from UniProt P15151 21-139) (Fc fusion)
1190	CD155 variant IgV-Fc P18S, A47G, L79P, F91S, L104M, T107A, R113W (from UniProt P15151 24-139) (Fc fusion)

target: T2, CD96 (UniProt P40200); assay: flow cytometry on CD96-expressing cells
T2 sequence (looked up): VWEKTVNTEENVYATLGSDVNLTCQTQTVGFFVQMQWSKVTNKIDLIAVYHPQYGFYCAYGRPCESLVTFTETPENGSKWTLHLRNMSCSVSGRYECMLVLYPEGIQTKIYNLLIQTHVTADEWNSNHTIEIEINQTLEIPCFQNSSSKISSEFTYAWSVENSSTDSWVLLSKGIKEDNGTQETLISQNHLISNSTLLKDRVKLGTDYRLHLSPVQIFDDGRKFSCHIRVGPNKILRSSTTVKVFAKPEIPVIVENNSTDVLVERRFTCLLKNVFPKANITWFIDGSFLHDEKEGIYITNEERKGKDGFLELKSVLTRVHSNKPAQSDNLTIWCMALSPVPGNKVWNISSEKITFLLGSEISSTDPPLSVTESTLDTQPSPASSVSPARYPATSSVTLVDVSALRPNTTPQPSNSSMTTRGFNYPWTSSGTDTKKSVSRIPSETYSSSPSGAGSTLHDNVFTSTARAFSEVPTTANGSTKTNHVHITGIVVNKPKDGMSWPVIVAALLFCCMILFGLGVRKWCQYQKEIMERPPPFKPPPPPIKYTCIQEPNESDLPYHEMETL

MFI at 100 nM [MFI]	Substance
1100	CD112 ECD-Fc (from UniProt Q92692 32-360) (Fc fusion)
4060	CD112 variant R12W, A46T, K66M, Q79R, N106I, T113A, S118F IgV-Fc (from UniProt Q92692 32-156) (Fc fusion)
5000	CD112 variant Y33H, S118T IgV-Fc (from UniProt Q92692 32-156) (Fc fusion)

target: human ICOS as used for the 'ICOS OD' read-out of Table 14 (human); assay: binding read as OD; format not described
Sequence (Q9Y6W8 whole entry): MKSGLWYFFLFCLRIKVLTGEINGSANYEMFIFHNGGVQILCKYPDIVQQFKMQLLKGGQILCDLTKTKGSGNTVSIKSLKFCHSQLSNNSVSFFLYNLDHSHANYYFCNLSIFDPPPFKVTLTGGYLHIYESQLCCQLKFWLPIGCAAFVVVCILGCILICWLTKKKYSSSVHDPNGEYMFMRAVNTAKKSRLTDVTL

ICOS OD [OD]	ICOS OD parental ratio (ratio to WT ICOSL ECD-Fc)	Substance
1.5		ICOSL variant N52S/S54P ECD-Fc fusion
0.85	0.99	ICOSL variant N52S/Y152H ECD-Fc fusion

target: T1, CD226 (human); assay: flow cytometry on CD226-expressing cells

MFI at 100 nM [MFI]	Substance
15600	CD112 variant Y33H, A46T, Q79R, N106I, S118F IgV-Fc (from UniProt Q92692 32-156) (Fc fusion)
17700	CD112 variant Y33H, S118T IgV-Fc (from UniProt Q92692 32-156) (Fc fusion)

target: PD-1 on Jurkat/PD-1 cells; assay: flow cytometry on Jurkat/PD-1 cells, 50 nM

MFI at 50 nM	Substance
69500	PD-L1 IgV I20L, E27G, D43G, N45D, V58A, N78I Fc fusion
72700	PD-L1 IgV I20L, D43G, N45D, V58A, N78I Fc fusion
80200	PD-L1 IgV I20L, A33D, D43G, N45D, V58A, N78I Fc fusion
18500	Full length PD-L1 Fc (from UniProt Q9NZQ7 19-239) (Fc fusion)
251	PD-L1 IgV A33D, S75P, D104G Fc fusion

The remaining lines, values behind:

Substance	MFI at 50 nM
PD-L1 IgV I20L, E27G, N45T, V50A Fc fusion	29800
PD-L1 IgV A33D, S75P Fc fusion (SEQ ID NO 1310)	1790
PD-L1 IgV I20L, D43G, N45D, N78I Fc fusion	67000

target: human CD28, full-length, expressed on transfected Expi293 cells (human) (UniProt P10747); assay: flow cytometry on CD28-expressing Expi293 cells

MFI [MFI]	MFI parental ratio (ratio to WT ICOSL ECD-Fc)	Substance
6340		stacked Fc fusion, Domain 1: NKp30 WT / Domain 2: ICOSL WT
68	3.78	ICOSL variant N52S/Y152H ECD-Fc fusion

target: human B7-H6, full-length, expressed on transfected Expi293 cells (human) (UniProt Q68D85); assay: flow cytometry on B7-H6-expressing Expi293 cells
Sequence (Q68D85 25-454): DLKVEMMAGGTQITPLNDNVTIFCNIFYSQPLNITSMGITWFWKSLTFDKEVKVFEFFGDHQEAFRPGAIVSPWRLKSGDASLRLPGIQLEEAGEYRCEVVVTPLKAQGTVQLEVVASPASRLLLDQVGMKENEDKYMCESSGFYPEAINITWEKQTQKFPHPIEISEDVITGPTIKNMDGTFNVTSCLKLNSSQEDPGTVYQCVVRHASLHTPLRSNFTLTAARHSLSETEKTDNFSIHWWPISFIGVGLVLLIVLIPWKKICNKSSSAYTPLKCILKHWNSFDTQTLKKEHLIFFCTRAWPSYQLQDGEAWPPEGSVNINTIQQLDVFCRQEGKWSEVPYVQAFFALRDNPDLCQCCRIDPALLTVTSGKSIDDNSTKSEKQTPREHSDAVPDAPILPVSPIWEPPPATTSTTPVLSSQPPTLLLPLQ

MFI [MFI]	Substance
64500	stacked Fc fusion, Domain 1: NKp30 WT / Domain 2: ICOSL WT

target: CD112R (full length, expressed on transfected cells) (human) (UniProt Q6DKI7); assay: flow cytometry on cells expressing the target, 20 nM
Sequence (Q6DKI7 whole entry): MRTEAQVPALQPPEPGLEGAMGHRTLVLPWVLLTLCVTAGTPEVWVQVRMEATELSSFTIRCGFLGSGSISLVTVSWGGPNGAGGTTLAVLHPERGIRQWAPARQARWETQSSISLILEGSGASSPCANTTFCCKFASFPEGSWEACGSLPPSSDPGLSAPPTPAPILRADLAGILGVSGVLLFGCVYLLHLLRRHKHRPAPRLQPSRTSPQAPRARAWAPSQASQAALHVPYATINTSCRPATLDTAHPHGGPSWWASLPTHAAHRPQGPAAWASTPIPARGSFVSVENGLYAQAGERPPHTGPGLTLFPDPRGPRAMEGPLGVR

MFI at 20 nM	Substance
1120	CD112 IgV R12W, Y33H, N47K, Q79R, S118Y Fc fusion (from UniProt Q92692 32-156)
1660	WT CD112 IgV Fc fusion (from UniProt Q92692 32-156)

target: T3, CD96 (expressed on cells) (UniProt P40200); assay: as above
T3 sequence (looked up): T2 sequence (looked up)

MFI at 20 nM	Substance
2640	CD112 IgV R12W, Y33H, N47K, Q79R, S118Y Fc fusion (from UniProt Q92692 32-156)
2500	WT CD112 IgV Fc fusion (from UniProt Q92692 32-156)

target: PD-1 on Jurkat/PD-1 cells; assay: flow cytometry, 50 nM; ratio to wild type PD-L1 IgV-Fc

Fold increase over wildtype PD-L1 IgV-Fc [fold]	Substance
13.3	PD-L1 IgV I20L, E27G, D43G, N45D, V58A, N78I Fc fusion
13.9	PD-L1 IgV I20L, D43G, N45D, V58A, N78I Fc fusion
15.3	PD-L1 IgV I20L, A33D, D43G, N45D, V58A, N78I Fc fusion
3.5	Full length PD-L1 Fc (from UniProt Q9NZQ7 19-239) (Fc fusion)
0	PD-L1 IgV A33D, S75P, D104G Fc fusion

The next lines start with the substance.

Substance	Fold increase over wildtype PD-L1 IgV-Fc [fold]
PD-L1 IgV I20L, E27G, N45T, V50A Fc fusion	5.7
PD-L1 IgV A33D, S75P Fc fusion (SEQ ID NO 1310)	0.3
PD-L1 IgV I20L, D43G, N45D, N78I Fc fusion	12.8

target: PD-1 (Homo sapiens (Human)) (UniProt Q15116); assay: flow cytometry, cells expressing PD-1; vs WT PD-L1 (IgV + IgC) Fc

Fold Change Compared to WT PD-L1 [fold]	Substance
0	variant PD-L1 ECD-Fc I36T, G52R, M97L, V112A, K144E, V175A, P198T (Fc fusion)
0	variant PD-L1 ECD-Fc I36T, I46V, D55G, M97L, K106E, K144E, T185A, R195G (Fc fusion)
